Data published in patent US20030157108A1.
Several values for one entry are separate records, joined by “and”; a condition that tells them apart may be missing. Identical values can stand only once.

Experiments:
[1] = target: human FcγRIIIA(F158) (human) (UniProt P08637); assay: ELISA, E27 hexamers (E27:IgE complexes) at 0.12 µg/ml (by text and FIG. 12; footnote letters shifted); standard = HEK293
[2] = target: human FcγRIIIA(V158) (human) (UniProt P08637); assay: ELISA, E27 hexamers (E27:IgE complexes) at 0.12 µg/ml (by text and FIG. 13; footnote letters shifted); standard = HEK293
Sequence of human FcγRIIIA(V158) (human) (P08637 17-208 F176V limits assumed): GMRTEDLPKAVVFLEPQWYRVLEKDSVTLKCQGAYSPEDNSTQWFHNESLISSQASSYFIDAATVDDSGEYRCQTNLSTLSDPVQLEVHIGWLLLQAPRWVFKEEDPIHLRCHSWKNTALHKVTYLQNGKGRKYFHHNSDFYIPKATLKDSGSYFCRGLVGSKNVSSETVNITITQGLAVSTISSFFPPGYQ

[3] = target: human FcγRIIIA(F158) (human) (UniProt P08637); assay: ELISA, Hu4D5 dimers at 1.11 µg/ml; standard = CHO-S
[4] = target: human FcγRIIIA(F158) (human) (UniProt P08637); assay: ELISA, Hu4D5 dimers at 1.11 µg/ml; standard = CHO-S; average of lots
[5] = target: human FcγRIIIA(V158) (human) (UniProt P08637); assay: as above
[6] = target: human FcγRIIIA(V158) (human) (UniProt P08637); assay: ELISA, Hu4D5 dimers at 1.11 µg/ml; standard = CHO-S
[7] = target: human FcγRIIIA(Phe158) full-length α-chain co-expressed with γ-chain on CHO cells (human) (UniProt P08637); assay: cell-based assay, Hu4D5 monomers on CHO cells transfected with FcγRIIIA α-chain and γ-chain (by text and FIG. 28; footnote letters shifted); standard = CHO-S
Sequence of human FcγRIIIA(Phe158) full-length α-chain co-expressed with γ-chain on CHO cells (human) (P08637 17-254, chain 1 of 2): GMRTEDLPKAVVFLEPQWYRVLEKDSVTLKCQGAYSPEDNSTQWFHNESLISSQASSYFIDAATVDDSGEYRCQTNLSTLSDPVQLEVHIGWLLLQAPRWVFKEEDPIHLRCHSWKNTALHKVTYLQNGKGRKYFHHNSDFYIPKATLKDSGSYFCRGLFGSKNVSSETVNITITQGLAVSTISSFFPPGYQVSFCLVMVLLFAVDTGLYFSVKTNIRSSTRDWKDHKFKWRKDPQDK
Sequence of human FcγRIIIA(Phe158) full-length α-chain co-expressed with γ-chain on CHO cells (human) (P30273 19-86, chain 2 of 2, further chain): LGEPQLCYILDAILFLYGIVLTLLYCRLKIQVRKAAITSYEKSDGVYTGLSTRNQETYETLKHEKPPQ

[8] = target: human FcγRIIIA(Phe158) full-length α-chain co-expressed with γ-chain on CHO cells (human) (UniProt P08637); assay: cell-based assay, Hu4D5 monomers on CHO cells transfected with FcγRIIIA α-chain and γ-chain (by text and FIG. 28; footnote letters shifted); standard = CHO-S; average of lots
[9] = target: human FcγRIIIA(V158) (human) (UniProt P08637); assay: ELISA, Hu4D5 dimers; Table 2 prints 23.1 for the average
[10] = target: human FcγRIIIA(V158) (human) (UniProt P08637); assay: ELISA, E27 dimers at 0.12 µg/ml (by text and FIG. 10; footnote letters shifted); standard = HEK293
[11] = target: human FcγRIIIA(F158) (human) (UniProt P08637); assay: ELISA, E27 dimers at 0.12 µg/ml (by text and FIG. 11; footnote letters shifted); standard = HEK293

Sequence of human FcγRIIIA(F158) (human) (P08637 17-208 limits assumed): as the sequence (P08637 17-208 F176V limits assumed) above, with V160F counted along it

| ratio A(variant)/A(standard) at A490nm [1] | ratio A(variant)/A(standard) at A490nm [3] | ratio A(variant)/A(standard) at A490nm [10] | ratio A(variant)/A(standard) at A490nm [11] | Substance | also measured |
| --- | --- | --- | --- | --- | --- |
| 1.87 |  |  |  | E27 with S298A/E333A/K334A substitutions in the Fc region, expressed in HEK293 cells (antibody) | ratio A(variant)/A(standard) at A490nm [2]: 1.15 |
|  | 20.8 |  |  | Hu4D5 with S298A/E333A/K334A substitutions in the Fc region, expressed in HEK293 cells (antibody) |  |
|  | 32.8 and 32.9 and 34.8 |  |  | Hu4D5 with S298A/E333A/K334A substitutions in the Fc region, expressed in Lec13 cells (fucose-deficient) (antibody) | ratio A(variant)/A(standard) at A490nm [4]: 33.5; ratio A(variant)/A(standard) at A490nm [5]: 23.1; ratio A(variant)/A(standard) at A490nm [6]: 25.4 and 23.8 and 22.5; ratio variant/standard [7]: 26.8 and 25.9; ratio variant/standard [8]: 26.4; fold improvement in binding [9]: 21 fold |
| 0.65 |  | 0.32 | 0.35 | anti-IgE antibody E27 expressed in CHO-DP12 cells on plates (CHO-P) |  |
| 1.92 |  | 6.44 | 7.63 | anti-IgE antibody E27 expressed in Lec13 cells (fucose-deficient) |  |
